# Measurements from US20180362629A1 (ZOETIS BELGIUM S A, published 2018).
# Like-named read-outs stand apart in the source and are kept apart here.
# T1: recombinant canine β NGF (canine, UniProt Q29074 110-229 (pig entry))
# T1 construct: also called canine NGF
# T1 chain: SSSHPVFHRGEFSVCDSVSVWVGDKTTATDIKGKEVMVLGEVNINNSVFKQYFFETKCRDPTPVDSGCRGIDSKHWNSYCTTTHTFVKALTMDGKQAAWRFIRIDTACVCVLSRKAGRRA
# B1: PR-1254982 (antibody, mouse IgG1, V domains shown)
# VH: QVQLKESGPGLVAPSQSLSITCTVSGFSLTGYNINWVRQPPGKGLEWLGMIWGYGDTDYNSALKSRLSISKDNSKSQVFLKMNSLQTDDTARYYCARDHYGGNDWYFDVWGTGTTVTVSS
# VL: DIQMTQTTSSLSASLGDRVTITCRASQDITNYLNWYQQKPDGTVKLLIYYTSRLHSGVPSRFSGSGSGTDYSLTISNLDQEDIATYFCQQGKTLPRTFGGGTKLEIKR
# notes: also called 3F7; ML130-3F7.4A8
# B2: 82.3 Canine IgG1/k (antibody, V domains shown)
# VH: EVQLQESGPGLVKPSQTLSLTCTVSGFSLTGYNINWVRQRPDRGLEWLGMIWGYGDTDYNSALKSRLSISKDNTKSQVFLQLTSTTTEDTAVYYCARDHYGGNDWYFDVWGQGTLVTVSS
# VL: DIQMTQTPLSLSASPGESASITCRASQDITNYLNWYRQKPGQSVKLLIYYTSRLHSGVPSRFSGSGSGTDYSLRISRVEDEDAGLYFCQQGKTLPRTFGQGTKLEIKR
# notes: The variable/constant junction was not checked; also called PR-1313519; PR-13113519
# Tests used:
# recombinant canine β NGF [1] = biological target: T1, recombinant canine β NGF; test: SPR (Biacore), mAb captured on goat anti-mouse IgG Fc, canine NGF injected; Expt 1; Expt 1
# Method: (§1) A biomolecular protein interaction analysis was used to evaluate the binding kinetics of the interaction between the purified anti-NGF hybridoma antibodies and recombinant canine β NGF. The antibodies were captured using a goat anti-mouse IgG FC (10000 RU) surface which was directly immobilized to a CM5 chip using an amine coupling procedure according to the manufacturer's instructions (Biacore). A sample size of 5 μl of antibody at a concentration of 1 μg/ml was captured at 10 μl minute. Recombinant canine NGF was used as the antigen. Canine NGF was injected at 75 μl/min (concentration range: 5-0.039 nM) for mouse antibodies. The association rate was monitored for 3.3 minutes and the dissociation rate was monitored for 10 minutes. Aliquots of canine NGF were also simultaneously injected over a reference reaction CM surface to record any nonspecific binding background. The instrument sensitivity for on-rate is I×IO⁷, such that any on-rate that is faster than I×IO⁷ may not be accurately measured; the instrument sensitivity for off-rate is […], such that any off-rate that is slower than 1×10⁻⁶ may not be accurately measured. Therefore, an on-rate that is faster than 1×10⁷ is recorded as >1×10⁷ and an off-rate that is slower than 1×10⁻⁶ is recorded as <1×10⁻⁶.
# recombinant canine β NGF [2] = biological target: T1, recombinant canine β NGF; test: SPR (Biacore), mAb captured on goat anti-mouse IgG Fc, canine NGF injected; Expt 2
# recombinant canine β NGF [3] = biological target: T1, recombinant canine β NGF; test: direct ELISA, canine NGF coated at 1 µg/ml, mAb at 0.4 µg/ml
# recombinant canine β NGF [4] = biological target: T1, recombinant canine β NGF; test: cell-based or functional assay
# recombinant canine β NGF [5] = biological target: T1, recombinant canine β NGF; test: direct ELISA, canine NGF coated at 1 µg/ml, mAb at 10 µg/ml
# recombinant canine β NGF [6] = biological target: T1, recombinant canine β NGF; test: cell-based or functional assay
# recombinant canine β NGF [7] = biological target: T1, recombinant canine β NGF; test: SPR (Biacore), mAb captured on goat anti-mouse IgG Fc, canine NGF injected; Average; Average
# Method: as §1
# recombinant canine β NGF [8] = biological target: T1, recombinant canine β NGF; test: direct ELISA, canine NGF coated at 1 µg/ml, mAb at 2 µg/ml
# recombinant canine β NGF [9] = biological target: T1, recombinant canine β NGF; test: SPR (Biacore), mAb captured on goat anti-mouse IgG Fc, canine NGF injected; Average
# recombinant canine β NGF [10] = biological target: T1, recombinant canine β NGF; test: SPR (Biacore), mAb captured on goat anti-mouse IgG Fc, canine NGF injected; Expt 1
# recombinant canine β NGF [11] = biological target: T1, recombinant canine β NGF; test: SPR (Biacore T100), antibody captured on goat anti-canine IgG, canine NGF injected; Average
# Method: (§2) Purified mouse/canine chimeric antibodies and caninized antibodies were analyzed for affinity to canine NGF using a Biacore T100 instrument. Goat anti Canine IgG (Southern Biotech) was immobilized at 5000-10000 RU on a CM5 chip using an amine coupling procedure according to the manufacturer's instructions (Biacore). […] The association rate was monitored for 5 min and the dissociation rate was monitored for 10-20 min. The chip surface was regenerated using 50-75 ul 10 mM glycine pH 1.5 at a flow rate of 50-100 ul/min. Data was analyzed using Biaevaluation T100 software version 2.0.2, software, GE Healthcare Life Sciences (Piscataway, N.J.). Overall affinity parameters established for mouse/canine chimeric antibodies is summarized in Table 22 and for caninized antibodies in Table 23. […] The overall KDs of the mouse/canine anti-NGF mAbs range from about 1300 pM to 1.6 pM. […] The overall KDs of the caninized anti-NGF mAbs range from about 42 pM to 1.2 pM.
# recombinant canine β NGF [12] = biological target: T1, recombinant canine β NGF; test: SPR (Biacore T100), antibody captured on goat anti-canine IgG, canine NGF injected; Expt 1
# Method: as §2
# recombinant canine β NGF [13] = biological target: T1, recombinant canine β NGF; test: SPR (Biacore T100), antibody captured on goat anti-canine IgG, canine NGF injected; Expt 1; Expt 1
# Method: as §2
# recombinant canine β NGF [14] = biological target: T1, recombinant canine β NGF; test: SPR (Biacore T100), antibody captured on goat anti-canine IgG, canine NGF injected; Expt 2
# Method: as §2
# recombinant canine β NGF [15] = biological target: T1, recombinant canine β NGF; test: cell-based or functional assay
binder,measurement,setting,value
B1,koff,recombinant canine β NGF [1],< 1e-06 s⁻¹
same,Kd,recombinant canine β NGF [2],< 0.1 pM
same,koff,recombinant canine β NGF [2],< 1e-06 s⁻¹
same,kon,recombinant canine β NGF [2],> 1e+07 M⁻¹ s⁻¹
same,absorbance at 450 nm,recombinant canine β NGF [3],0.095 A450
same,PathHunter IC50 (441 pM canine NGF),recombinant canine β NGF [4],0.15 nM
same,SureFire pERK IC50 (128 pM canine β NGF),recombinant canine β NGF [4],5.8 pM
same,absorbance at 450 nm,recombinant canine β NGF [5],0.208 A450
same,"IC50, canine NGF-induced TF-1 cell proliferation (70 pM canine NGF)",recombinant canine β NGF [6],25 pM
same,koff,recombinant canine β NGF [7],< 1e-06 s⁻¹
same,absorbance at 450 nm,recombinant canine β NGF [8],0.142 A450
same,Kd,recombinant canine β NGF [9],< 0.1 pM
same,kon,recombinant canine β NGF [9],> 1e+07 M⁻¹ s⁻¹
same,Kd,recombinant canine β NGF [10],< 0.1 pM
same,kon,recombinant canine β NGF [10],> 1e+07 M⁻¹ s⁻¹
B2,Kd,recombinant canine β NGF [11],2 pM
same,koff,recombinant canine β NGF [11],1.7e-05 s⁻¹
same,kon,recombinant canine β NGF [11],8.4e+06 M⁻¹ s⁻¹
same,Kd,recombinant canine β NGF [12],2.4 pM
same,kon,recombinant canine β NGF [12],8.2e+06 M⁻¹ s⁻¹
same,koff,recombinant canine β NGF [13],2e-05 s⁻¹
same,Kd,recombinant canine β NGF [14],1.6 pM
same,koff,recombinant canine β NGF [14],1.3e-05 s⁻¹
same,kon,recombinant canine β NGF [14],8.5e+06 M⁻¹ s⁻¹
same,"IC50, canine NGF-induced TF-1 cell proliferation (70 pM canine NGF)",recombinant canine β NGF [15],17 pM
